T1: Mas receptor fused to Rluc (MasR-Rluc) (human), P04201
T1 chain: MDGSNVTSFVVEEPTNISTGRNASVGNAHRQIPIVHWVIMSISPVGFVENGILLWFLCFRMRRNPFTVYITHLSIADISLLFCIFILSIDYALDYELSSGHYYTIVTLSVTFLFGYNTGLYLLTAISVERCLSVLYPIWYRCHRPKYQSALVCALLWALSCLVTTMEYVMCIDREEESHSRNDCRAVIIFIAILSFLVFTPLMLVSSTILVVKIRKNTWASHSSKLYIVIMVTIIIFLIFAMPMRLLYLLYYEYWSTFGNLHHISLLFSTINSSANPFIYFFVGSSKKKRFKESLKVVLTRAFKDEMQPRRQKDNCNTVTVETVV

B1: Angiotensin AT1 receptor fused to YFP (AT1R-YFP), P30556 1-359 (receptor)
chain: MILNSSTEDGIKRIQDDCPKAGRHNYIFVMIPTLYSIIFVVGIFGNSLVVIVIYFYMKLKTVASVFLLNLALADLCFLLTLPLWAVYTAMEYRWPFGNYLCKIASASVSFNLYASVFLLTCLSIDRYLAIVHPMKSRLRRTMLVAKVTCIIIWLLAGLASLPAIIHRNVFFIENTNITVCAFHYESQNSTLPIGLGLTKNILGFLFPFLIILTSYTLIWKALKKAYEIQKNKPRNDDIFKIIMAIVLFFFFSWIPHQIFTFLDVLIQLGIIRDCRIADIVDTAMPITICIAYFNNCLNPLFYGFLGKKFKRYFLQLLKYIPPKAKSHSNLSTKMSTLSYRPSDNVSSSTKKPAPCFEVE

What was measured:
[1] = biological target: Mas receptor, endogenous in mouse striatal cells (mouse (endogenous in primary striatal neurons and microglia)) (UniProt P30554); test: proximity ligation
UniProt P30554, sequence (P30554 whole entry, the tested form may be a part): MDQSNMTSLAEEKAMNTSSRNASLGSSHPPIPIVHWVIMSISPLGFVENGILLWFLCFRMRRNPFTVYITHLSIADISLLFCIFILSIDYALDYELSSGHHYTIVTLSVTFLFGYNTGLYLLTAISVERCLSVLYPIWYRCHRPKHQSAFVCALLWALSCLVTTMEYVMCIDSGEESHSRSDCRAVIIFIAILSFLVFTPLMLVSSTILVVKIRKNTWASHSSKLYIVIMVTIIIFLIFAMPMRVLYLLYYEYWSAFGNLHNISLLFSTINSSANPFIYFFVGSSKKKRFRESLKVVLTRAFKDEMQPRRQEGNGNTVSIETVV

[2] = biological target: T1, Mas receptor fused to Rluc (MasR-Rluc) …; test: FRET or BRET; conditions: remark: other sources report otherwise

Molecule	PLA red dots/cell (striatal neurons) (red dots/cell) [1]	BRET50 [2] [mBU]
Angiotensin AT1 receptor, endogenous in mouse striatal cells (from UniProt P29754 1-359)	1.44	–
B1	–	13
